Test: soluble fraction after stress (log2 fold change); higher = more stays soluble; pooled small domains, quantitative proteomics
Details: stress: 75 degC
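Note: 20 min heating vs room temperature control held 20 min.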

Sequence	soluble fraction (log2)
HMGSWDDFFNAIRLDNPNTLQALLQRGFDPNTVDQQGTPALMRALQEQSYRAAEVLADHPQI	-0.603
HMGTAGLSPWHKIAVLMIALGPEGASELMRHFGEDEVEQVVQAIADLKNVPSELQDAVLLEMEGALQEG	0.00911
HMGTDVFIMTGGTRKRGATWSYYFDLGKIDGKRQKKEKGGFKTKKEAETALAKAINEYNNAGA	-0.506
HMGTFIATVEANSLDIYKSMSSNETIGKANKGEVFQILEDMGSGYARVSYNDVEGYLSIRDGDATIEE	0.0208
HMGTGADQVSWKTGDKVTHKKWGEGTVVKVSGSGNDKELDIAFPQQGVKRLLASFAPIKKVT	-0.0162
HMGTGQTNEKLAVLTNIQKTQEQILLTLGAKNPLVNLKQYRETLAKILSLSGYKNSNEFFLDPM	-0.184
HMGTGTYQVWSANGLGVRMRSGPGTGYRILAVYSVGTSVTVLQKGAYWSYIRVGSRTGYMMNQFLVSG	0.609
HMGTGVEQGKQYRTLKRDFDGASGIKVNGDFYRLRTSDTGMTELPAGTEVTFERFDGTTAVVHT	0.0416
HMGTHPGIDSGIISDILALKKELPTRSAAKIITMLTLAGKMEENSIHVKTVNRILYQYGYTRDTLS	-1.92
HMGTITKRTNPSGAVVWRAQIRINKADMPTYSESKTFSKKSLATEWLKRREAEIEANPDLIL	-0.929
HMGTKDVNAAPSAVGRTYDEAIEILNGYKAGYLEEYSDTVPKGTVISQSVQDGQVVIVVSLGPKPS	-0.136
HMGTKVGAPLPGTITEVKVKVGDTVKAGDAVIILEAMKMQNNIEAEVSGTVSSVLVKEGDTVMEGDALITI	-0.0573
HMGTLNLSQAYREWGMAEIEANRDYYGPVRFDDIAFQMSPAGQQLQARFVASYADRLHDAIEGEL	-0.364
HMGTLRPKGTVVFANLPIAADAKEGDMYNISDQFTTTASFKEGAGNVIPAGSNVYRTDDGFWDVL	0.783
HMGTPEQSAQFEQVLEELKNVPGPVMKAMQRAQDIYGYLPIEIQSRIGQAFGVSLEEVYGIATFYSQFNL	-2.55
HMGTQKVQVVNGPINVRSGPGPTFEKIGMVEDQAVYQVVSKKDDWFQISLPGNKTAWVAGWLVKEIK	-0.035
HMGTRHPLPYAFAKAHTVLLEDDGDRLLLHAAENSGPSALGEILRLYDVDALERETASTLANRIAVAYAG	0.175
HMGTSGLTIPRFVSLASGTVHMRAGPGVRYPITWIYKRLGTPLMVMAEHEFWRKVRDAEGTEGWMHRSLLS	0.0559
HMGTSIMIIIVKPETKKERVNDLIHWIESQNLRTHLSTGDYSTIIGVIGDTSKLDSELIRGLDIVENVKRV	-2.18
HMGTSMDPPVIIVSDGKLIQKGLEVSGLKKQWLYDLIDRKHMKISDIFLLTADKTGKYNLIKRS	-0.0253
HMGTSQSAVKAILAQLISDENKQKPYSDEALSRLLQQQGIDIARRTVAKYREALNIPPAHQRK	0.26
HMGTSRVQSILFDQSQWTINRAVHWLNTHHFISTKIDKTDKYLRFRQFDPNPDSHHATKRTSQGITFILE	-4.37
HMGTTIAMSKLKQVLRWKEEGYSNRKIAQLVGLNKETVNNYISRANADSLSQKELLQLDDFVLDIRLRG	-1.76
HMGTTTGKVNATGVNFRTGPSTSYSSMGKLGIDTAVTILGKSGDWYQVKVNSTGKTGYVFAKYITITSVV	-1.95

Sequence	soluble fraction (log2)
HMGTVIGMGRITAGGVNFRETEGGGVIEKLERDTLVEVLTVPSVIDTTHWYQVRYNNRTGYVQAPFVQLLG	-1.7
HMGTVKWFNATKGFGFIVPSDGGKDVFVHITAVQKAGLQGLNEGQKVSYEVAMERGKAAATNLR	-0.782
HMGTVRFYNKERGFGFVVSDDGESVFLPAKALPDGVSDLSPGTRVDYGAALGKKGSQ	0.0973
HMGVAAPMPGTITDVRVKVGDRVQPRTVVMMLEAMKMENEIFAGRAGVVSQVAVEKGASVNTGDLLISIDP	-0.311
HMGVAASEVHREKKESSLQWRQSYNVATDQRRQGKTYKEITEFLNGAELKNSKGGTWSISGVRKMLM	0.0165
HMGVARGQAQVTTRQHVVQPGETLYQISKQYGVTVAEILRYNADIEDNTVKVGQTLQIPTPLP	≥ 1.04
HMGVDMAPESIVGKKGVAATELRPAGKVEIHGQVYDAVSVGMFIKRGTGVKVVRYEAAQIYVEPE	-0.544
HMGVEALTPRQREVLALMAQGRSNGWIAAELGLSEKAIVQHTSNIYDMLGLAVDADDHRRVLAVIHYLT	-1.19
HMGVENDGYVLPRELKKGDTVLIADLGKEATVLSPVDRNGNVEVLAGAAKTRVKLKNLRLIE	0.0345
HMGVEVPRGDGSTVVRVRAGSSLADFAERIGADPAALITVLFRMGEMATVNQSLDEDTFKLLGAELGYDVQ	-0.704
HMGVGIAEAMKHVADEDYGDLSSEFQRIFSAVDGGSTLGDAVRAQMRATSSAGLRRTLSVLAMSVE	0.553
HMGVGTTDERLAVLNQIASRQTEALEKLGPNNPLVGLGQIRNTLSKMLEISGYPDSNQFFKQVPLDYEPPP	0.156
HMGVIDTLSGPQKAAAILVAIGRPSASRLLKHFNAEDLRKLAGHARTLEPISPLDFEHLVKQFEDSFAEG	-0.874
HMGVIGADIRALRVSRGWTLSDLAEALDRSVGWLSQVERDVSEPALADIRRIAGIFDLPVSFFFSD	-2.64
HMGVLDFSAQLLKHLEMNGGQTPLGDKSPAEEIYAVFGVSKKVFKKAVGDLYRKRLIEISSNGIRMTS	-2.14
HMGVLGVDALAAAAEVSVDTVRYYQHLGLLEPPRREGRRAVYGPSHLARMGEIRRLAAAGFTLDQIRQLAE	-2.81
HMGVPTEQQSLIGKSGIAATDLRPSGKVEIDGKRYDAVSNYAGFIAKGTPISVVRYETGQIYVE	0.205
HMGYDDVIVINGKNETYGFPTKVEDDPVLSLVIKGDRSIDYAEERRLFYVAMTRTKNRVFFVAP	0.0548
HMGYGEQEAEATKYMSLHAIMSADETLSKMYTPENQHKLMTHVMEQNGIKNVKDYLTPPSELP	0.016
HMGYPYDTVTTAKVNLRAKRSTSSDILKKIPEGATVTVKGVTGTFASVDYNGTSGYVKVDYLV	-0.46
HMGYSSKISELLTKYNMNASELAQKVGVPPTTIYSIIKRDSKKADIEVLIKIAKLFNVPVEYF	-2.38
HMGYTPGVVIQKSAILEEINQPDLALGMMLEAVKKDSQNLDILNRLVTLLIDQKKNEDAEIYNKKIIT	0.234
HMHAGMKSWTIQYEKSPIYGSFLMYKDGNIYIQKEDNVVVHFPLDRFSQNDQAILKSRIEKIDQINKSS	-0.761
HMHAPKIIVLTINPDKIRDVIGPGGKMIKSIVAATGVKMDVEDDGKIHISSSDQKAADEAIRMINEITAEA	0.146

Sequence	soluble fraction (log2)
HMHAPLEVGSVVRIEGQKALGTILSISDREAIVALGALKTTIPLKRLHGVSPAEAQRHLRKTTPAQAVR	-0.665
HMHAQDTLMTRAGETRTVKILEIGLEEIKYRIWGLDDSPVIVIDKIDVKQIVFSNGEKMTIVQ	-1.47
HMHDLTERQREILQTLASGKMALREILSILSQPPSLRTLRDELYHLKRIGLVDTMGYGRGATWFLTQ	-0.223
HMHDNPLSAQEQRVLDLIAAGKTSKEIASQLFLSDGTVRNYTTSIFNKLNANNRVEAINIAQENGW	0.866
HMHDPRLPLPGTLLAREFQGRDIVVKVLDNGFEFDGRRYKSLSAIAQEVTGSKWNGFLFFGI	-1.33
HMHDWDITTAAKPEKIFELFSDIPVLETGLKHGTVTLLIDHEPYEVTTFRVDGNYTDGRHPDSVAFT	0.189
HMHGESIPIPNILHKRYADAEQIVNNLRLEIEVTDTGYVRSLPPGAILEQTPGPGERVKSGHIIYVTINAA	-1.42
HMHGETLAAKRREEIKVRIQNIYDQSEQIFGYRKITATLRSQGVVVSEKLVSQLMRELEISSVS	-3.92
HMHGSSVEIPNIYGLPASEAVQLLDKADLRYEVIDSVYTTEVPKGAVYDLSPKAGSRVKAGRIIFLTLNA	-0.942
HMHGSTAVVPQIKNMPYSEASVRLGANGLAIEINDSVYDRDMPPGTVIESWPKAGAVVKQGRQVYVTVTA	-0.425
HMHHGALKQALLDETARILAEEGESALSLRRLASNLGVSRTAPYNHFDNKDALLSAVAEEGFRR	-0.0868
HMHIELNDTQKRILNFLSDDPNLSAVRLAEQLGISSRNVEKNIKKLKEYGILIRHGSPKNGYWEIVV	0.0385
HMHITSFTIKQADQIVGTTPVREQAVGAAKARAQQTGTPVSVIAYLDTGEEREVIIHPDGTN	0.479
HMHKLTSRQEEILQFIKDYLSEIGYPPTRSEIAQKMGFRSTNAAEEHLRALARKGAIEILPGPSRGLRLP	-1.13
HMHKTEIKIPSREDILAVLRQAQAPLTREQVFEHLKLTEDQIPIIEKRLNAMERDGQLMPNRKGMLLLSTK	-0.0438
HMHKYEYESLNHVNVGSNLKYISTHFGQPKLIKKSKYHENLNFAYYLEKKFILTLILEGDRVNAYTITG	-0.732
HMHLEKGEVVVPDLKGLTMRQVGELLGKLNLRYSFSGTGLAVKQFPESGQIVNQGDIIEVIF	-0.56
HMHLLPAREQVAAYLRKAILRQEIREGTILNLADTARQMGVSVTPVREALQLLAAQGLVRLRPNKGAVVMG	-1.68
HMHLNVYRDEDEAMLAFKDHLIGTHQPIRVRVEKALPDGTMGHKIVDTTIGRIVFNHNIPQD	-0.185
HMHLTEAPLIKITYFEADQKKSGGQYITIINHLKKINEYENLLVLENGVKINIDDIYELESV	-0.191
HMHMNFGEILQTKRKEKGFTQEELAHQLLVSSKTISNWETNKTTPDIDNVIRISQLFDISLNQLLLE	-1.03
HMHMSKKLADSIISLRRKHGFSQEQLAEKIGVTRQAISNWERGTATPDVETLNLIAKLFDMDLLAIINGE	0.0813

Reference: the domain aggregation screens of Martell et al. (2025)
